B1: Fab HM14c10 (Fab, V domains shown)
VH: EVQLVESGGGVVQPGRSLRLSCAASGFSFSSYGMHWVRQAPGKGLEWVAVIWYDGSKTYYGDSVKGRFTISKDNSKKMVNLQMDSLGVEDTAFYYCARGIAGGWAFWGIDLWGQGTLVTVSS
VL: DVVMTQSPGTLSLSPGERATLSCRASQNVYSYLGWYQHKPGRSPRLLIFGVTSRATGVPDRFSGSGSGTDFTLTISRLEPEDFAVYYCQQYAGSAYTFGQGTKVEIKR
notes: also called HM14c10Fab; Fab 14c10
B2: HM14c10 (recombinant human IgG1 antibody 14c10, clone 8) (antibody, V domains shown)
VH: B1 VH
VL: B1 VL
notes: also called 14c10.8; recombinant IgG1 14c10 antibody

How the values were obtained:
[1] = molecular target: T1, Dengue virus serotype 1 strain PVP 159 (DENV1/SG/07K3640DK1/2008) E protein, on whole virus (Dengue virus serotype 1, UniProt P27909 281-676)
T1 construct: also called DENV1 E protein

[2] = molecular target: T2, Dengue virus serotype 2 (DENV2) E protein, on whole virus (Dengue virus serotype 2, UniProt P29990 281-775); assay: sandwich ELISA on live whole virus
T2 construct: mature; also called Dengue serotype 2

[3] = molecular target: T3, Dengue virus serotype 3 (DENV3) E protein, on whole virus (Dengue virus serotype 3, UniProt P27915 281-773); assay: sandwich ELISA on live whole virus
T3 construct: mature; also called Dengue serotype 3

[4] = molecular target: T4, Dengue virus serotype 4 (DENV4) E protein, on whole virus (Dengue virus serotype 4, UniProt P09866 280-774); assay: sandwich ELISA on live whole virus
T4 construct: mature; also called Dengue serotype 4

| Binder | binding result [1] | binding result [2] | binding result [3] | binding result [4] |
| --- | --- | --- | --- | --- |
| B1 | binds |  |  |  |
| B2 |  | no binding | no binding | no binding |
